Experimental data reported in article doi:10.1101/2021.02.19.432005 (bioRxiv, 2021).
Like-named read-outs stand apart in the source and are kept apart here. Values belong to the molecule of their own block, whether it stands above or below them.

T1: Notch1^EGF33-NRR (mouse, UniProt Q01705 1267-1717)
T1 sequence: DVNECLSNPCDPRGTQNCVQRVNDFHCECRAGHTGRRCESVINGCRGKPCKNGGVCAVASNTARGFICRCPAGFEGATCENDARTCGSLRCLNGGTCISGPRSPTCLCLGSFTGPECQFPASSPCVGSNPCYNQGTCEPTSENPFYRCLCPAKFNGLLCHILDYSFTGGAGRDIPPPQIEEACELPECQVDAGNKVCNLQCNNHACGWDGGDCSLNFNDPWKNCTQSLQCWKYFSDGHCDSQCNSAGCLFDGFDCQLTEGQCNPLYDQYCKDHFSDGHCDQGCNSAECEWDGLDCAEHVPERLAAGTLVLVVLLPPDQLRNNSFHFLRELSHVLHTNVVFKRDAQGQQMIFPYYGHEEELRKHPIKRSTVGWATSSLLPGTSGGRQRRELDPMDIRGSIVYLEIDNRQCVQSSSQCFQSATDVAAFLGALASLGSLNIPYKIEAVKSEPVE

B1: Notch1 negative regulatory region (Notch1^NRR) (domain or fragment)
chain: EEACELPECQVDAGNKVCNLQCNNHACGWDGGDCSLNFNDPWKNCTQSLQCWKYFSDGHCDSQCNSAGCLFDGFDCQLTEGQCNPLYDQYCKDHFSDGHCDQGCNSAECEWDGLDCAEHVPERLAAGTLVLVVLLPPDQLRNNSFHFLRELSHVLHTNVVFKRDAQGQQMIFPYYGHEEELRKHPIKRSTVGWATSSLLPGTSGGRQRRELDPMDIRGSIVYLEIDNRQCVQSSSQCFQSATDVAAFLGALASLGSLNIPYKIEAVKSEPVE
B2: Notch1^EGF8-13, C-terminally biotinylated SPR ligand (domain or fragment)
chain: EDVDECQLMPNACQNGGTCHNTHGGYNCVCVNGWTGEDCSENIDDCASAACFQGATCHDRVASFYCECPHGRTGLLCHLNDACISNPCNEGSNCDTNPVNGKAICTCPSGYTGPACSQDVDECALGANPCEHAGKCLNTLGSFECQCLQGYTGPRCEIDVNECISNPCQNDATCLDQIGEFQCICMPGYEGVYCEINTDECASSPCLHNGHCMDKINEFQCQCPKGFNGHLCQ
modifications: biotin on the C-terminal biotin acceptor peptide
B3: Jagged1^EGF8-11,Fc (Fc-tagged, covalently dimerized) (Fc fusion)
chain: DIDECASNPCLNGGHCQNEINRFQCLCPTGFSGNLCQLDIDYCEPNPCQNGAQCYNRASDYFCKCPEDYEGKNCSHLKDHCRTTTCEVIDSCTVAMASNDTPEGVRYISSNVCGPHGKCKSQSGGKFTCDCNKGFTGTYCHENINDCESNPCKNGGTCIDGVNSYKCICSDGWEGAHCE
B4: Jagged1 full ectodomain, wild type (Jagged1^fe,wt) (domain or fragment)
chain: ASGQFELEILSMQNVNGELQNGNCCGGVRNPGDRKCTRDECDTYFKVCLKEYQSRVTAGGPCSFGSGSTPVIGGNTFNLKASRGNDRNRIVLPFSFAWPRSYTLLVEAWDSSNDTIQPDSIIEKASHSGMINPSRQWQTLKQNTGIAHFEYQIRVTCDDHYYGFGCNKFCRPRDDFFGHYACDQNGNKTCMEGWMGPDCNKAICRQGCSPKHGSCKLPGDCRCQYGWQGLYCDKCIPHPGCVHGTCNEPWQCLCETNWGGQLCDKDLNYCGTHQPCLNRGTCSNTGPDKYQCSCPEGYSGPNCEIAEHACLSDPCHNRGSCKETSSGFECECSPGWTGPTCSTNIDDCSPNNCSHGGTCQDLVNGFKCVCPPQWTGKTCQLDANECEAKPCVNARSCKNLIASYYCDCLPGWMGQNCDININDCLGQCQNDASCRDLVNGYRCICPPGYAGDHCERDIDECASNPCLNGGHCQNEINRFQCLCPTGFSGNLCQLDIDYCEPNPCQNGAQCYNRASDYFCKCPEDYEGKNCSHLKDHCRTTTCEVIDSCTVAMASNDTPEGVRYISSNVCGPHGKCKSQSGGKFTCDCNKGFTGTYCHENINDCESNPCKNGGTCIDGVNSYKCICSDGWEGAHCENNINDCSQNPCHYGGTCRDLVNDFYCDCKNGWKGKTCHSRDSQCDEATCNNGGTCYDEVDTFKCMCPGGWEGTTCNIARNSSCLPNPCHNGGTCVVNGDSFTCVCKEGWEGPICTQNTNDCSPHPCYNSGTCVDGDNWYRCECAPGFAGPDCRININECQSSPCAFGATCVDEINGYQCICPPGHSGAKCHEVSGRSCITMGRVILDGAKWDDDCNTCQCLNGRVACSKVWCGPRPCRLHKSHNECPSGQSCIPVLDDQCFVRPCTGVGECRSSSLQPVKTKCTSDSYYQDNCANITFTFNKEMMSPGLTTEHICSELRNLNILKNVSAEYSIYIACEPSLSANNEIHVAISAEDIRDDGNPVKEITDKIIDLVSKRDGNSSLIAAVAEVRVQRRPLKNRTD
B5: Jagged1^C2-EGF3,wt, C-terminally biotinylated SPR ligand (domain or fragment)
chain: ASGQFELEILSMQNVNGELQNGNCCGGVRNPGDRKCTRDECDTYFKVCLKEYQSRVTAGGPCSFGSGSTPVIGGNTFNLKASRGNDRNRIVLPFSFAWPRSYTLLVEAWDSSNDTIQPDSIIEKASHSGMINPSRQWQTLKQNTGIAHFEYQIRVTCDDHYYGFGCNKFCRPRDDFFGHYACDQNGNKTCMEGWMGPDCNKAICRQGCSPKHGSCKLPGDCRCQYGWQGLYCDKCIPHPGCVHGTCNEPWQCLCETNWGGQLCDKDLNYCGTHQPCLNRGTCSNTGPDKYQCSCPEGYSGPNCE
modifications: biotin on the C-terminal biotin acceptor peptide
B6: Notch1^NRRΔloop (domain or fragment)
chain: EEACELPECQVDAGNKVCNLQCNNHACGWDGGDCSLNFNDPWKNCTQSLQCWKYFSDGHCDSQCNSAGCLFDGFDCQLTEGQCNPLYDQYCKDHFSDGHCDQGCNSAECEWDGLDCAEHVPERLAAGTLVLVVLLPPDQLRNNSFHFLRELSHVLHTNVVFKRDAQGQQMIFPYYGDIRGSIVYLEIDNRQCVQSSSQCFQSATDVAAFLGALASLGSLNIPYKIEAVKSEPVE
B7: Notch1 full ectodomain (Notch1^fe), mouse (domain or fragment)
chain: ARGLRCSQPSGTCLNGGRCEVANGTEACVCSGAFVGQRCQDSNPCLSTPCKNAGTCHVVDHGGTVDYACSCPLGFSGPLCLTPLDNACLANPCRNGGTCDLLTLTEYKCRCPPGWSGKSCQQADPCASNPCANGGQCLPFESSYICRCPPGFHGPTCRQDVNECSQNPGLCRHGGTCHNEIGSYRCACRATHTGPHCELPYVPCSPSPCQNGGTCRPTGDTTHECACLPGFAGQNCEENVDDCPGNNCKNGGACVDGVNTYNCRCPPEWTGQYCTEDVDECQLMPNACQNGGTCHNTHGGYNCVCVNGWTGEDCSENIDDCASAACFQGATCHDRVASFYCECPHGRTGLLCHLNDACISNPCNEGSNCDTNPVNGKAICTCPSGYTGPACSQDVDECALGANPCEHAGKCLNTLGSFECQCLQGYTGPRCEIDVNECISNPCQNDATCLDQIGEFQCICMPGYEGVYCEINTDECASSPCLHNGHCMDKINEFQCQCPKGFNGHLCQYDVDECASTPCKNGAKCLDGPNTYTCVCTEGYTGTHCEVDIDECDPDPCHYGSCKDGVATFTCLCQPGYTGHHCETNINECHSQPCRHGGTCQDRDNSYLCLCLKGTTGPNCEINLDDCASNPCDSGTCLDKIDGYECACEPGYTGSMCNVNIDECAGSPCHNGGTCEDGIAGFTCRCPEGYHDPTCLSEVNECNSNPCIHGACRDGLNGYKCDCAPGWSGTNCDINNNECESNPCVNGGTCKDMTSGYVCTCREGFSGPNCQTNINECASNPCLNQGTCIDDVAGYKCNCPLPYTGATCEVVLAPCATSPCKNSGVCKESEDYESFSCVCPTGWQGQTCEVDINECVKSPCRHGASCQNTNGSYRCLCQAGYTGRNCESDIDDCRPNPCHNGGSCTDGINTAFCDCLPGFQGAFCEEDINECASNPCQNGANCTDCVDSYTCTCPVGFNGIHCENNTPDCTESSCFNGGTCVDGINSFTCLCPPGFTGSYCQYDVNECDSRPCLHGGTCQDSYGTYKCTCPQGYTGLNCQNLVRWCDSAPCKNGGRCWQTNTQYHCECRSGWTGVNCDVLSVSCEVAAQKRGIDVTLLCQHGGLCVDEGDKHYCHCQAGYTGSYCEDEVDECSPNPCQNGATCTDYLGGFSCKCVAGYHGSNCSEEINECLSQPCQNGGTCIDLTNSYKCSCPRGTQGVHCEINVDDCHPPLDPASRSPKCFNNGTCVDQVGGYTCTCPPGFVGERCEGDVNECLSNPCDPRGTQNCVQRVNDFHCECRAGHTGRRCESVINGCRGKPCKNGGVCAVASNTARGFICRCPAGFEGATCENDARTCGSLRCLNGGTCISGPRSPTCLCLGSFTGPECQFPASSPCVGSNPCYNQGTCEPTSENPFYRCLCPAKFNGLLCHILDYSFTGGAGRDIPPPQIEEACELPECQVDAGNKVCNLQCNNHACGWDGGDCSLNFNDPWKNCTQSLQCWKYFSDGHCDSQCNSAGCLFDGFDCQLTEGQCNPLYDQYCKDHFSDGHCDQGCNSAECEWDGLDCAEHVPERLAAGTLVLVVLLPPDQLRNNSFHFLRELSHVLHTNVVFKRDAQGQQMIFPYYGHEEELRKHPIKRSTVGWATSSLLPGTSGGRQRRELDPMDIRGSIVYLEIDNRQCVQSSSQCFQSATDVAAFLGALASLGSLNIPYKIEAVKSEPVE
B8: Jagged1^CRD,Fc (Fc-tagged, covalently dimerized) (Fc fusion)
chain: EVSGRSCITMGRVILDGAKWDDDCNTCQCLNGRVACSKVWCGPRPCRLHKSHNECPSGQSCIPVLDDQCFVRPCTGVGECRSSSLQPVKTKCTSDSYYQDNCANITFTFNKEMMSPGLTTEHICSELRNLNILKNVSAEYSIYIACEPSLSANNEIHVAISAEDIRDDGNPVKEITDKIIDLVSKRDGNSSLIAAVAEVRVQRRPLKNRTD

Assays:
[1] = molecular target: Jagged1^C2-EGF3,HA (mouse) (UniProt Q9QXX0); assay: MST
SEC-MALS = molecular target: the molecule itself; assay: SEC-MALS
Notch1^EGF33-NRR = molecular target: T1, Notch1^EGF33-NRR; assay: SPR
[2] = molecular target: Notch1^EGF33-NRR, C-terminally biotinylated SPR ligand (mouse) (UniProt Q01705); assay: SPR
[3] = molecular target: B5; assay: SPR
[4] = molecular target: B7; assay: cross-linking
[5] = molecular target: B5; assay: SPR; remark: listed apart in the source
cross-linking = molecular target: the molecule itself; assay: cross-linking

Kd [1]: 500 nM
Molecule: Notch1^EGF33-NRR (from UniProt Q01705 1267-1717) (domain or fragment)

Molecule: B1
stoichiometry N (SEC-MALS): 2

Molecule: B2
Kd (Notch1^EGF33-NRR): 115000 nM

Molecule: B3
Kd [2]: 290 nM | Kd [3]: 340 nM

Molecule: B4
binding result [4]: binds

Molecule: B5
binding result (Notch1^EGF33-NRR): binds

Molecule: B6
Kd [5]: ~1000 nM

Molecule: B7
binding result (cross-linking): binds

Molecule: B8
Kd [2]: 290 nM | Kd [3]: 930 nM
